# Measurements taken from the NTF2 design screens of Basanta et al. (2020).
# Test: protease stability score; higher = more stable; yeast display proteolysis, trypsin and chymotrypsin;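 also: log10 excess protease needed over predicted unfolded state with 0 meaning unfolded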
row,Sequence,protease stability score
1,DDDAVRQVHTFWRILERGNSDRATEMLDENARVEVGDRSLHGREKIVTQQYRLYTQARIEVERYSAQDHGNKVHAFVLVVVHVNGTPHRFTVDVNFVFQNGRFKSIHLQVSEEQLRQEER,0.604
2,DDDAVRRMKEFEEAKQHGDPDELRRLADPNVRLEYGDKEIHGRDTMAQTLKNEVDEIRMEVDFRHFTSQGDKVSIQAEQSRDNNGQPQSVKAQFDARFHNGRLKHLRVQLDG,0.114
3,DDDDLKRITEFLKNEQKGNSEELRKLADPNATFQIGDKTIKGRDKFANEAKKRRDEMHFQYKSVHMRDHNGVAVFSVTWILDHNGKPEENTFTLQAKLTNGKIKMLRLQSRK,-0.012
4,DDDDMKLAEEFAQAISTGDHNRVEENADKDARFDIGDKVVNGNHQRATEVKKEQDDQKVSVDINSMDATGNKVVAEINVDINNNGHPETQEHILHFTQDNGKIRHMEVKDDQ,-0.685
5,DDDDNKTAQDRMRTNDFTTLARHAPEDAHAQIGDTTVTGRRKLEEIVVKFREQVDHMEIKDIRTSGEKVFIDLHATFDGHTVRLVIEVEVKNGRLQKLFFRVTDPERAKEIVEQLD,0.362
6,DDDDQLRSMIKSYNDNFQRGDFVRLLKMAPPDVKIRIGEDEISGREKANEFATRLEEEVDQVEAEIKSVTAHNGKASADILVEVNHNGETKHFTIEVHFDLQNGEVHLTEVVYK,0.79
7,DDDEARHRAEEIVRQMQSNNWKDIDKLMDKNVQIRVGDKRYTGRTRARKFIKTIADRVDHAHVVNVTVQGNKARFEFIARFDGEHVRMQMVFELHNGHAKKVEVDPEELKQLKK,1.04
8,DDDEARKALQWFSTGDPDKLKKNVDENAKVQIGDKEYQGRDQAATALVKLQKRVDHVEIKHVSIDGDDVVVDLVLNVDGHEVRFTNEFRVENGKFQDVHINVTNEEDEKILKRVLG,0.932
9,DDDEIEKIARQLVKALQKGDFKHFVELMDKDVRLEYGDKEVHGREQAKQAMKELAERVDHVQLDDYKVHNGTAEIRLKLNFNGKSADVVFDMRIEDGRVKKIVIRYRSEEHRKHIDT,1.24
10,DDDEIRRLAKRVVKALHDGDPDEMMRLADENAKIDVGDHRIRGREQLRDFVKQLTEDVDHIRIHDYRVTPNHARVVVVVDHNGQKSTFVVEAHMDNGTIKSMRFHER,0.462
11,DDDEMHKLVEHAIKAWETGDHKKAMDLIDPNAKVDVGDREIHGREEFSHHVREINKKVDRVDVQDYKVRGNKAQVRMQFNVNGQTVVVNLVFVMSNGRLSRVQIDVTDPDKFRSAQS,0.138
12,DDDEMRELIKSIEEVLTDGDPDEFLKQIDPNAKAQYGDTRVSGSEEIRKMAEKFSDRVDHVDVRDIKVSGDTATFDMQIDHNGRNDTVIMIVEAHNGKVKHVQYHKG,0.142
13,DDDEMRKLLTRLADNYKHNDPNKLAEQMDPDVEIEIGDKTYHGRENVMKHWKEQHERVDHVNIQHLDAQGENLVMTFNVTVNGKHVTVRIIFNVKNGRIKSVIVDPDDIKKLEG,1.48
14,DDDENKNVLKRVVDILRTGDDKKMQKLADPNARLIVGDKTYHGREDMMHWVKELKQDVDHMKVEQIEVRGERARAILVAEVNGQQRRYLLIITVHNGRLKQMEVRSQ,1.91
15,DDDEVRKAMRAVTNFFKGNPDQVMELIDPNAHIQVGDKSVTGREQARHLVKDVKEEQQFDVQSVDARDHGSKIVINVRFEVRHNGQPREKFMVLEMSVHNGKIQEMRVRTDS,0.946
16,DDDEVRKIREFMHVMSRGDSNRAMEMADPNAHFKVGDKTINGRESFKSWLRKQREEIHVQIDDVTNTSEPGHVEVNADVTFEHNGQPDRVTLIMIARLKNGRITFLEIRRKK,1.33
17,DDDEVRKLVHNLERGNFDDFVRQADPNAKVTIGNKTYHGREDIKSAYKKLKDQVDHLEVKRVRHHNGRLNVERIVVVNGRNIRYHVRLTIHNGRIKHIRYQATNEEQQKWMDEVIK,0.559
18,DDDHARRLAERFIKAFQKGDEERAKDLAPPDVKVHVGDTQYNGREQMKQAVKDFRERVDHLSVETIKVRNGRVEVHATANINGVEVNVVFTFVFRNGKMKSMDLKYRDEEAHRNWTS,1.19
19,DDDHATEIAKRMIDNFTTGNEENVKRLVDPNATVRIGDKRFHGRDHIRDAIRQIKERIDHIQVRTFTAHNGRIRITAEVKINGQSKEIHIELRIHNGHVVFFQLNVRNEEEWKTALS,1.05
20,DDDHLRKVEDFMRAQLEGDPDRLKQLADPNVRMNVGEKKVHGMQDIATEQASTYKTARYEIKSLDSKTEGDKVVITMRVQADNNGQPHDETFHLKARLENGKIVEQSKENDG,-0.529
21,DDDKAKEIARQVWHAIREGDEDEAKRQFDKNARVVYGDKTVHGKEQAARMVHEWRRRIDHLEINDMKVDGNSVHVVFRYVHNGRERTQVVRIELDNGRVKNAEFTDQ,1.46
22,DDDKDRKIAEEITKLLKHGNPDELARQADPNVRLEVGDHVYHGRHQMVEWVKHFWERADHLRIKDVTTRPGHVDLVATLRFDGKEAEFKVTFEFHNGRLKRVEVDPEFQKQIDS,1.56
23,DDDKERKARKFAEIYMHGDWRKAHQYADPNVRIKVGDKTFQGRESLAKLVESLRKEQRLEMKRVEARVTNGRINLHLRFVVQKNGTPSHRRIHFDARMHNGKLKEMTENDKR,0.115
24,DDDKIRKDAETFVKILETGNQERAQRMFDENAHMRIGDKTYHGRESVHKAIKTIRDEVDHVQVRHIDIQGEEVIIQMRFDHNGNQDIMTINLVIKNGRIKSATYTRP,0.537
25,DDDKKAHKFFSEMLTAIQTGNEDQLRHLVDKDAHINVGDDVITGRENIVETWREKRERVDDLDAKVDSYHVHNGRIEIRAKESSTKNGKSDSRDFRIQARLTNGHVKLQKKEQN,-0.348

row,Sequence,protease stability score
1,DDDKKAKNWMERMLHIFREGDEDSYKNNFDENAEINIGDKTYHGRDRVQRLFSEIKHNVDHLKIQFQDFSTHNGRWVLIFEYSRTHNGHTEQNVIVVNMEQHNGKVVVKSMREK,0.636
2,DDDKQRKVEQVNRAWNEGDEETWKNNFDPNARVNVGEFNYEGMEEISKNIRDQKEQWRIEFKRMDLNMHGNKATAHFEATTNHNGNPDEFRKRLEAEFQGDRLKHMRVTEDR,-0.235
3,DDDKRAEDWAKELIKVEQEGDEDQMERNADEDVRLKYGDTEIHGREQFREHVREQIERVDSVDVRIETFHMHNGRLDMVAEVEVQVDGRKHKDRFVFHAVDHNGRMLLKSASEG,0.522
4,DDDKRANQFFRDMLRVFKNNNEKEAEKLFPPDANQNVGEERVHGREQFRKEFVDDARNVDHWEARIVDLDVKNGRIVIRFEFVKDVNGRKNKDVRTLTVVNHNGRLVIERVNSG,0.882
5,DDDKRHLAQRFFEAMKRGDPRQALNNMDPNARVVIGDKVIRGRDKFHEHIDKLNKHQRVQYRDVKLHDQGDKITANVDVVRNENGRPHRNVYVAEFSARNGRLTEVEMREDK,-0.138
6,DDDKRKQFEDYMRKFKTGNEEDLVRNMDKDVDVHIGDKTWDGREEAAHELAQHRRHARIEYKSLSVDDKGDKLQVKMQYVDEHNGTPRDSHVVATLRLKNGKIRMIDVKRDG,-0.17
7,DDDKVRESVNNMLHAMQNGDHDRFRKMADENVRIEVGDKEYKGREKAAEHIKEVVDRVDHIQVESVKVHNGRARANLNMVVNGHSARATLNVNANNGRVVVVEMDPDQIRKAES,-0.629
8,DDDKVTKVNELLENIKRGNEDDIRDLMDPNARVRIGDKDFHGREEVSDTWKQIRDTAHLSFTDVKNDDQGDHVYVRARFHQTHNGKPDTSVLHLEVTIRNGKIKEAQFHETP,-0.159
9,DDDLKRKVHKFVEDWKDGDPHRLNHMADEDVRFQVGDKEIHGRKQMHEEVDKEKKEMRRHIDHLELDNQGNTVRVRFELTFTHNGKPFKVDVTIDMEFDGDRLKQAVQRVPREDQTKVKN,-0.209
10,DDDLRRRLHEFWENMQEGDEKRLREMADPNVRFEVGDKSIHGREEFARKVKELHEQQRFSVRIDRMDNQGNKVDITFHVTQKHNGRPNRYTARVTITAHNGKIKSVSVDISQ,0.391
11,DDDLTRKVEKFMRNVQKGNEEELKKMMDPNVHAEVGDKVYHGREDAVEKRVTHYHEQNWRYEDIDLKVEGDRAKAKVVRVVNINGKPIRFEFSVNMRFHNGKITRINNDLPEEVLHKLKR,0.118
12,DDDLVRKAKKFYEIVETGDEDKIVKMLDKDAQINVGDRRIDGREDIKTFEHKQVQHMRIEFDSVHASHQGDKVRVRAQMTVDVNGNPITYQAEFVFNVKNGRIKNLEQRVDEKEMKKIKS,0.007
13,DDDLVRKLNHMVKVMQNGDPDKIVDQMDPNARLIVGDKNVHGRDEARRFMEKVNKHLRFEIKSVTLHDRPNNANADVDANFHINGRPVRLKYIIVVSVHNGRIKEVQLRLSEDQERKLEK,0.71
14,DDDNARELVKRIMKAWQTGDEKELNKNMDPNVRIEVGDKTWHGREDVSKMARELRKQVDSIEVKDVEVQGNHANADVVQVVNGEQKHYLVIIDFHNGKARRLKIEER,2.11
15,DDDNFRRFKDLQHAENRGDPDRVMELVDPNAHIRVGNTTLKGTKQIKDWVEHILKNWDEQLHSVDEKFQGNHITARYQMEINVNGEPEHFDVTQMATLDNGKIQNRVVRVSEDDLENIER,-0.247
16,DDDNKRKAETYMKNLHTGDPDKATEYMDKDAKIQYGDKSVHGRHQWREEIERRRKELRFTVDLHRLHVQGEKFDLKYIEHNNHNGNPKSQSASVTYRMHNGRVHSIQYSYTK,-0.237
17,DDDNKRVVERFLRAQQEGDPDTAKENADENAHFHYGDRRITGRESYAEWMERRKKESRVEFRIDQMNVSGDRIDVHFQMQVRHNGRPERFEARMVIKITNGHIVQVRVEKKE,0.207
18,DDDNLKRQNEDVNRAVQHGDEKKVADMADPNVKVYYGDKEIHGREKVKEWWKRLADRADSFTVVDIELQGEKIRVRVKANIDGKHVDMEFEAHASNGRVKKMHINPDQFRQLRS,0.445
19,DDDNVRKMNEMFNALETGDEHKLKKQFDPNAHIRIGDQTYHGMDDYARKFRHKRNNMRQSYESYTITNEGDKVTIEATFSRRHNGTPERKKVVVEVDIRGDQAKSATVQDDR,0.032
20,DDDNVRKYVELMHEGDNEQLVRLADPNVRLQVGDKQYDGREDFEHHLRQIHTQADHFQVQDYHFEGDKAVMDVVMTVNGHQFRFKIHVEVRNGEVKQVQWDFTDPNQRDRFRNNLS,0.611
21,DDDQARKFVNIVQTGDEDKLLELAPPDVRVKVGDHRVHGRENVKRMVEKLKKSVDHFSIRQIHVHNGRVHVDMDVNVNGQTIRAEYVFVAHNGKLEEISIEVTDETVHDLMTRILS,0.665
22,DDDQKRRVEDWWKVLNHGDPDKLRTLADENAKFDVGDKKYHGMTRAADELVRTLREIRLNIRRMEIQVHNGRVVANVDAEVRVNGNPMQIHYTAQMTASNGKITSVQNRIPSEQLKRLRK,0.165
23,DDDQLDRNATQMMEALQTGDEQTLNNLVDPDVRFHIGDKVVHGRDQWNEQVKKIRDRADRIHIKHVEAQGDKVRMEFVLNINGRNIRVRMEAEVHNGRFKVITFDPEQVKEMRK,1.19
24,DDDQLRKFLEILRSGNEDDMERQADKDARARVGDDHYHGREEVAHMIRNFLHRADHIEVKSVRFTGEKAKVDMHAVVNGQELRLIIEAEVHNGTLKHIVMKVTDEEHKRTLERAMS,0.29
25,DDDQNRRFKEMLEVRKTGDEHRLKQLLDPNARLNIGDKRIHGREEIARFMKTKFDESRSEVDVKDVKAHNGRISVTADFRNSSNGQPQRYTATMRATIHNGSFQEIQIDTEK,-0.234
